From US20210054062A1 (NEURACLE SCIENCE, published 2021)

Key:
FAM19A5-rabbit Fc [1] = target: T1, FAM19A5-rabbit Fc; test: ELISA: FAM19A5-rFc captured on coated anti-rabbit Fc antibody, antibody at 2.8 to 2055 pM, anti-human kappa light chain-HRP, OD450. The table prints R2 of the fit as 1.000.
T1 construct: also called FAM19A5-rFc
Experimental: (§1) For the ELISA assay, the following protocol was used. Anti-rabbit Fc antibody (diluted to a concentration of 1 μg/mL in 50 mM carbonate buffer, pH 9.6) was used to coat the 96-well plates (100 μL/well) overnight at 4° C. Next, the plates were washed with the washing buffer (PBST: 0.05% Tween-20/PBS) for a total of five washes. The plates were then blocked for 1 hour at 37° C. with the blocking buffer (1% BSA/PBST) (150 μL/well) and washed again with the washing buffer. Then, 50 ng/mL of FAM19A5-rabbit Fc (also called FAM19A5-rFc) antigen diluted in blocking buffer was added to each of the wells. The plates were incubated for an additional hour at 37° C. After the incubation, the plates were washed again for a total of five washes with the washing buffer. The diluted anti-FAM19A5 antibodies in blocking buffer to different concentrations (2055 pM, 685 pM, 228.3 pM, 76.1 pM, 25.4 pM, 8.5 pM, 2.8 pM, 0 pM) were added to each of the wells, and the plates were incubated for 2 hours at 37° C. After the incubation, the plates were washed (total of five washes in the wash buffer) and then, diluted anti-human kappa light chain-HRP (1:10000 in blocking buffer) was added to the well (100 μL/well). […] This reaction was stopped using 100 μL of sulfuric acid (2N H₂SO₄), and the extent of color change was detected via absorption at 450 nm using a 96 well microplate reader (Molecular Device).

FAM19A5-rabbit Fc [2] = target: T1, FAM19A5-rabbit Fc; test: ELISA: FAM19A5-rFc captured on coated anti-rabbit Fc antibody, antibody at 2.8 to 2055 pM, anti-human kappa light chain-HRP, OD450. The table prints R2 of the fit as 0.999.
Experimental: as §1

T1 sequence (Q7Z5A7 44-132): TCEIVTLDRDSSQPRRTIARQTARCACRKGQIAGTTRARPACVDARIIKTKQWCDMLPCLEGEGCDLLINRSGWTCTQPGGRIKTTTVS

B1: Reference anti-FAM19A5 antibody ("1-65") (antibody, V domains shown)
VH: AVTLDESGGGLQTPGGALSLVCKASGFTFSSYQMGWVRQAPGKGLEWVGVINKSGSDTSYGSAVKGRATISRDNGQSTVRLQLNNLRAEDTGTYFCAKGSASYITAATIDAWGHGTEVIVSS
VL: ALTQPSSVSANPGETVKITCSGGGSSGYGYGWYQQKSPSSAPLTVIYWNDKRPSDIPSRFSGSKSGSTHTLTITGVQAEDEAVYFCGNDDYSSDSGYVGVFGAGTTLTVL
notes: The ELISA detected it with anti-human kappa light chain-HRP; also called 1-65 antibody; clone 1-65
- EC50 (FAM19A5-rabbit Fc [1]): 130 pM

B2: Anti-FAM19A5 antibody ("SS01-13-s5") (antibody, V domains shown)
VH: AVTLDESGGGLQTPGGALRLSCKASGFTFSSYQMGWVRQAPGKGLEWVSAINKSGSDTSYGSAVKGRATISRDNGQSTLYLQMNSLRAEDTAVYFCAKGSASYITAATIDAWGHGTEVIVSS
VL: ALTQPSSVSANPGETARITCSGGASSGYGYGWYQQKPSSAPLTVIYKDSERPSDIPSRFSGSSSGSTHTLTISGVQAEDEAVYFCGNDDYSSDSGYVGVFGAGTTLTVL
notes: The ELISA detected it with anti-human kappa light chain-HRP; also called deimmunized clone 1-65; deimmunized 1-65 antibody
- EC50 (FAM19A5-rabbit Fc [1]): 380 pM

B3: Anti-FAM19A5 antibody ("S5-SG") (antibody, V domains shown)
VH: AVTLDESGGGLQTPGGALRLSCKASGFTFSSYQMGWVRQAPGKGLEWVSAINKGGSDTSYGSAVKGRATISRDNGQSTLYLQMNSLRAEDTAVYFCAKGSASYITAATIDAWGHGTEVIVSS
VL: ALTQPSSVSANPGETARITCSGGASSGYGYGWYQQKPSSAPLTVIYKDSERPSDIPSRFSGSSSGSTHTLTISGVQAEDEAVYFCGNDDYSSDSGYVGVFGAGTTLTVL
notes: The ELISA detected it with anti-human kappa light chain-HRP; also called deimmunized clone S5-SG; S5-2.GKNG antibody
- EC50 (FAM19A5-rabbit Fc [2]): 210 pM
